Measurements published in patent EP4361176A1 (CHUGAI SEIYAKU KABUSHIKI KAISHA, dated 2024).

Columns and labels:
[1] = molecular target: T1, human CTLA4 (soluble analyte of the Biacore assays of Reference Example 3-3) (human, UniProt P16410 36-161); test: SPR, 1000 nM CTLA4, per unit antibody, no ATP
T1 construct: also called hCTLA4
T1 sequence: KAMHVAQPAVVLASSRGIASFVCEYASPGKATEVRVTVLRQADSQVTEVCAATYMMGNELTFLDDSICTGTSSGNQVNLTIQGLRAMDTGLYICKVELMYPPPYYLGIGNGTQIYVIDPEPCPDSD

[2] = molecular target: T1, human CTLA4 (soluble analyte of the …); test: SPR, 1000 nM CTLA4, per unit antibody, ATP 10 uM
[3] = molecular target: T1, human CTLA4 (soluble analyte of the …); test: SPR, 1000 nM CTLA4, per unit antibody, ATP 100 uM
[4] = molecular target: T1, human CTLA4 (soluble analyte of the …); test: SPR, 1000 nM CTLA4, per unit antibody, ATP 1 uM
[5] = molecular target: T1, human CTLA4 (soluble analyte of the …); test: SPR Biacore T200
[6] = molecular target: T2, human FcγRIIb extracellular domain (human, UniProt P31994 43-217); test: SPR (Biacore 8K+), captured antibody, steady state affinity model
T2 construct: extracellular domain; Made by the method of WO2014104165; also called hFcγR IIb; FcyRIIb
T2 sequence (looked up): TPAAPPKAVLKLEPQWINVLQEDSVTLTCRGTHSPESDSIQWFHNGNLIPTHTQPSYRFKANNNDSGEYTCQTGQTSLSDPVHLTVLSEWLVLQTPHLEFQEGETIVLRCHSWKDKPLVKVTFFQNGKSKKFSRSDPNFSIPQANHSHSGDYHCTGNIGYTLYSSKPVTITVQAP

[7] = molecular target: T3, human FcγRIIa H extracellular domain (human, UniProt P12318 34-217); test: SPR (Biacore 8K+), captured antibody, 1:1 Langmuir model
T3 construct: extracellular domain; Made by the method of WO2014104165; also called hFcγR IIa H; FcyRIIaH
T3 sequence (looked up): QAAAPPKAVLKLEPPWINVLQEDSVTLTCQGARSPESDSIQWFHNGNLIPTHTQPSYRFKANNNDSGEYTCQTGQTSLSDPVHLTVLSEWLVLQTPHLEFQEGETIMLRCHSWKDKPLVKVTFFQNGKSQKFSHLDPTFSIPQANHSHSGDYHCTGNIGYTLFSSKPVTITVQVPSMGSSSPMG

[8] = molecular target: T2, human FcγRIIb extracellular domain; test: SPR; KD of G1d divided by KD of this antibody
[9] = molecular target: T3, human FcγRIIa H extracellular domain; test: SPR; KD of G1d divided by KD of this antibody
mCTLA4-His = molecular target: T4, mCTLA4-His (mouse, UniProt P09793 36-161); test: SPR Biacore T200, 100 uM ATP
T4 construct: Mouse CTLA4 extracellular region linked with a His-tag; also called mouse CTLA4; Mouse CTLA4

[10] = molecular target: T5, human CTLA4 (hCTLA4-His-BAP: human CTLA4 extracellular region with C-terminal His-tag and BAP-tag) (human); test: SPR (Biacore T200, 37C), antibody captured, human CTLA4 at 1000 nM, ATP 100 uM
T5 construct: This tie is an inference

[11] = molecular target: T5, human CTLA4 (hCTLA4-His-BAP: human …); test: SPR (Biacore T200, 37C), antibody captured, human CTLA4 at 1000 nM, ATP 10 uM
[12] = molecular target: T5, human CTLA4 (hCTLA4-His-BAP: human …); test: SPR (Biacore T200, 37C), antibody captured, human CTLA4 at 1000 nM, ATP 1 uM
[13] = molecular target: T5, human CTLA4 (hCTLA4-His-BAP: human …); test: SPR (Biacore T200, 37C), antibody captured, human CTLA4 at 1000 nM, no ATP

Binder	Binding to Human CTLA4 [1]	Binding to Human CTLA4 [2]	Binding to Human CTLA4 [3]	Binding to Human CTLA4 [4]	also measured
04H1077-G1m/04L1067-lam1 (antibody, human IgG1, lambda, V domains shown) VH: EVQLVESGGDLVKPGGGLRLSCAASGFTFSSRTMNWVRQAPGKGLEWVSSISTRSGYIYYAESVKGRFTISRDNAKNSLYLQMNSLRAEDTAVYYCARYGKREDMLWVFDYWGQGTLVTVSS VL: QSALTQPPSASGSPGQTVTISCDGPSTGVGDYNYVHWYQQHPGKAPKLMIYFTSKKPSGVPDRFSGSKSGNTASLTVSGLQAEDEADYFCSTYAAPLGPMFGGGTKLTVLG	0.012	0.131	0.192	0.041	–
04H1077-G1m/04L1086-lam1 (antibody, human IgG1, lambda, V domains shown) VH: EVQLVESGGDLVKPGGGLRLSCAASGFTFSSRTMNWVRQAPGKGLEWVSSISTRSGYIYYAESVKGRFTISRDNAKNSLYLQMNSLRAEDTAVYYCARYGKREDMLWVFDYWGQGTLVTVSS VL: QSALTQPPSASGSPGQTVTISCDGPSTGVGDYNYVHWYQQHPGKAPKLMIYFTSKKPSGVPDRFSGSKSGNTASLTVSGLQAEDEADYFCQTYAAPLGPMFGGGTKLTVLG	0.01	0.106	0.181	0.031	–
04H1208-G1m/04L1086-lam1 (antibody, human IgG1, lambda, V domains shown) VH: EVQLVESGGGLVKPGGSLRLSCAASGFTFSSKTMNWVRQAPGKGLEWVSSISTRSGYIYYARSVKGRFTISRDNAKNSLYLQMNSLRAEDTAVYYCARYGKREDMLWVFDYWGQGTLVTVSS VL: QSALTQPPSASGSPGQTVTISCDGPSTGVGDYNYVHWYQQHPGKAPKLMIYFTSKKPSGVPDRFSGSKSGNTASLTVSGLQAEDEADYFCQTYAAPLGPMFGGGTKLTVLG	0.005	0.108	0.17	0.03	–
04H1389v373-G1m/04L1086-lam1 (antibody, human IgG1, lambda) heavy: not shown light: QSALTQPPSASGSPGQTVTISCDGPSTGVGDYNYVHWYQQHPGKAPKLMIYFTSKKPSGVPDRFSGSKSGNTASLTVSGLQAEDEADYFCQTYAAPLGPMFGGGTKLTVLGQPKAAPSVTLFPPSSEELQANKATLVCLISDFYPGAVTVAWKADSSPVKAGVETTTPSKQSNNKYAASSYLSLTPEQWKSHRSYSCQVTHEGSTVEKTVAPTECS	–	–	–	–	binding result [5]: binds
04H1637-G1m/04L1086-lam1 (antibody, human IgG1, lambda) heavy: not shown light: QSALTQPPSASGSPGQTVTISCDGPSTGVGDYNYVHWYQQHPGKAPKLMIYFTSKKPSGVPDRFSGSKSGNTASLTVSGLQAEDEADYFCQTYAAPLGPMFGGGTKLTVLGQPKAAPSVTLFPPSSEELQANKATLVCLISDFYPGAVTVAWKADSSPVKAGVETTTPSKQSNNKYAASSYLSLTPEQWKSHRSYSCQVTHEGSTVEKTVAPTECS	–	–	–	–	binding result [5]: binds
H240-G1d/L73-k_glycomab (antibody, fucose-deficient (afucosylated) Fc sugar chain) chain 1: not shown chain 2: DIQMTQSPSSLSASVGDRVTITCRASQDIHKYIAWYQQKPGQAPRLLIQYTSTLQPGVPSRFSGSGSGTDYTFTISSLQPEDIATYYCLQYEQLRTFGGGTKVEIK	–	–	–	–	Kd [6]: 5.65 µM; Kd [7]: 0.999 µM; Relative value to KD between G1d and hFcgRs [8]: 1.8; Relative value to KD between G1d and hFcgRs [9]: 1.1
04H1077-G1m/04L1305-k0MT (antibody, human IgG1, kappa, V domains shown) VH: EVQLVESGGDLVKPGGGLRLSCAASGFTFSSRTMNWVRQAPGKGLEWVSSISTRSGYIYYAESVKGRFTISRDNAKNSLYLQMNSLRAEDTAVYYCARYGKREDMLWVFDYWGQGTLVTVSS VL: DIVMTQSPLSLPVTPGEPASISCDGPSTGVGDYNYVHWYQQKPGQAPRLLIYFTSKKPSGVPDRFSGSGSGTDFTLKISRVEAEDVGVYYCQTYAAPLGPMFGQGTKLEIKR	0.018	0.128	0.185	0.046	–
04H1208-G1m/04L1407-k0MT (antibody, human IgG1, kappa, V domains shown) VH: EVQLVESGGGLVKPGGSLRLSCAASGFTFSSKTMNWVRQAPGKGLEWVSSISTRSGYIYYARSVKGRFTISRDNAKNSLYLQMNSLRAEDTAVYYCARYGKREDMLWVFDYWGQGTLVTVSS VL: DIVMTQSPLSLPVTPGEPASISCDGPSTDVGDYNWVHWYQQKPGQAPRLLIYYTSSKPEGVPDRFSGSGSGTDFTLKISRVEAEDVGVYYCQTYAAPLGPTFGQGTKLEIKR	–	–	–	–	fold weaker binding to mouse CTLA4 than to human CTLA4 (mCTLA4-His): ~2 fold
04H1389-G1m/04L1086-lam1 (antibody, human IgG1, lambda, V domains shown, Human IgG1 (G1m), human lambda) VH: EVQLVESGGGLVKPGGSLRLSCAASGFTFSSKTMNWVRQAPGKGLEWVSSISTQSHYIYYAESVKGRFTISRDNAKNSLYLQMNSLRAEDTAVYYCARYGKREDMLWVFDYWGQGTLVTVSS VL: QSALTQPPSASGSPGQTVTISCDGPSTGVGDYNYVHWYQQHPGKAPKLMIYFTSKKPSGVPDRFSGSKSGNTASLTVSGLQAEDEADYFCQTYAAPLGPMFGGGTKLTVLG	–	–	–	–	Binding to Human CTLA4 (binding amount per unit amount of antibody) [10]: 0.193; Binding to Human CTLA4 (binding amount per unit amount of antibody) [11]: 0.189; Binding to Human CTLA4 (binding amount per unit amount of antibody) [12]: 0.138; Binding to Human CTLA4 (binding amount per unit amount of antibody) [13]: 0.022
04H1389-G1m/04L1305-k0MT (antibody, human IgG1, kappa, Human IgG1 (G1m), human kappa) heavy: not shown light: DIVMTQSPLSLPVTPGEPASISCDGPSTGVGDYNYVHWYQQKPGQAPRLLIYFTSKKPSGVPDRFSGSGSGTDFTLKISRVEAEDVGVYYCQTYAAPLGPMFGQGTKLEIKRTVAAPSVFIFPPSDEQLKSGTASVVCLLNNFYPREAKVQWKVDNALQSGNSQESVTEQDSKDSTYSLSSTLTLSKADYEKHKVYACEVTHQGLSSPVTKSFNRGEC	–	–	–	–	Binding to Human CTLA4 (binding amount per unit amount of antibody) [10]: 0.151; Binding to Human CTLA4 (binding amount per unit amount of antibody) [11]: 0.154; Binding to Human CTLA4 (binding amount per unit amount of antibody) [12]: 0.12; Binding to Human CTLA4 (binding amount per unit amount of antibody) [13]: 0.03
